Experimental data reported in the RNAGym collection of RNA variant scans (doi:10.7554/elife.80360).

B1: HDV Ribozyme (parent)
chain: GGCCGGCAUGGUCCCAGCCUCCUCGCUGGCGCCGGCUGGGCAACAUUCCGAGGGGACCGUCCCCUCGGUAAUGGCGAAUGGGACCCA

Variants of: B1
Experiment: self-cleavage, relative activity (ratio to wild type); higher = more cleavage; co-transcriptional

Variant	self-cleavage
C15A A16G	0.35
C15A A16U	0.499
C15U G53C	0.956
A16G U65A	0.974
A16G U65G	1.01
A16G C61U	1.26
A16G C61A	1.08
C15U C84U	0.962
C15U C84G	0.635
C15G G40C	0.271
C15U A78G	0.332
A16G C85A	1.32
A16C C57U	0.719
A16C C32G	0.293
A16C C32U	0.332
C15A G17A	0.302
C15A G17U	0.252
C15G G17U	0.243
C15G A83C	0.249
C15G A83U	0.0791
C15A A77C	0.0978
C15A A77G	0.485
A16G C21G	0.0875
A16G C21A	0

Variant	self-cleavage
C15G A45U	0.594
A16C A70G	0.923
C15U C49G	0.485
C15G A87C	0.799
C15U C75A	0.0326
C15U C75U	0.227
A16C G38C	0
A16U A51C	0.923
C15G G74A	0.13
C15A U37G	0.0755
C15U G59U	0.895
A16C C86A	0.692
C15U C57G	1.06
A16C U27C	0.293
A16G G81A	0.604
C15G U27C	0.277
C15G U27G	0.104
C15A G54C	0.806
C15G A70C	0.776
C15G C49U	0.554
A16G G17C	0.214
A16G G17U	0.643
C15U U37G	0.158
A16G A87C	1.09

Variant	self-cleavage
C14U G38U	0.271
A16G A77G	0.831
C14U C22G	0.155
A16C G34U	0.0489
C15A A43C	0.0554
C15A A43G	0.323
A16U A42G	0.166
C15G U79G	0.391
C15G U79C	0.342
C15G G25A	0.161
C15G A43U	0.123
C15G G54A	0.534
C14U G74U	0.733
C15U A77U	0.246
A16C A71G	0.7
A16C A71U	0.623
C15A C57A	0.764
C15A C57U	0.8
C15A C57G	0.623
A16G G80U	0.208
C14U C61G	1.08
A16C G68C	0.748
A16C G68U	0.697
A16C C48U	0.677

Variant	self-cleavage
C15A C75U	0.141
C14U C44G	0.7
C15A C48G	0.475
A16G G29A	0.252
A16C U72C	0.227
A16C G29U	0.0755
A16G C57U	1.14
A16G C57G	1.2
C14U C66U	1.25
A16G G39C	0.0791
C15G G31A	0.138
A16G A42C	0.0755
A16C U23G	0.688
A16C C18G	0
C15A C36G	0.145
A16G A43G	0.266
C15G G28C	0.107
A16G A51C	1.05
C15U U69C	0.643
C15U G39U	0.322
A16C G82U	0.201
A16G G38U	0.341
C15G C24U	0.196
C15A G76A	0.712

Variant	self-cleavage
C15U C33U	0.708
C15G C64U	1.02
C14U U79C	0.259
C15U G34A	0.173
C15G C58G	0.612
C14U G80C	0.314
C14U G80U	0.4
A16U A43U	0.443
C15U G81A	0.554
C15U G81U	0.554
C14U U37C	1.32
C14U C30U	0.489
C14U C30A	0.675
A16C G53U	0.755
C15U C66A	1.11
A16G G50A	1.4
C14U G25C	0.199
C15A G55A	0.796
C15U A51U	1.08
C15U C41G	0.475
C15G C36U	0.264
C15A A78C	0.0652
C14U C32U	0.86
A16G C26A	0.867

Variant	self-cleavage
A16G C26U	0.86
A16G C26G	0.831
C15A C86A	0.665
C15A A45G	0.8
C15A A45C	0.151
C15G A16U	0.795
C15G C75U	0.237
A16C C66G	0.554
C14U U46A	0.554
C15G A78G	0
A16G C44A	0.748
A16G C44U	0.615
A16G G76C	1.12
A16C C22U	0.369
A16C C22A	0.0594
C15G A71G	0.727
A16C A51U	0.935
C15U A56G	1.35
C15U U72A	0.485
C15A G53A	0.866
A16C G55A	0.554
C15U C61A	1.27
C15U C61U	0.882
C15G U72A	0.0875

Variant	self-cleavage
C15U C22G	0.147
A16G C58U	0.962
C15A U79A	0.519
C15A C63U	0.649
C15G G52C	0.95
A16C A77G	0.831
A16C C58G	0.532
A16G G74C	0.435
A16G G74A	0.404
C15A G82U	0.232
C15G C66U	0.573
A16G U69C	1.15
C15U G80C	0.177
C14U G55C	1.05
C15U C64G	0.962
A16C C30G	0.128
A16C C30A	0.208
C14U G82A	0.323
A16G C41A	0.798
C14U C26A	1.08
C14U C26G	0.76
C15A C85G	0.739
A16C G67U	1.17
A16C G67C	0.692

Variant	self-cleavage
C15G G59U	0.375
C15G G76C	0.467
A16G G28U	0.0519
C15U C18A	0.0639
C15G C44G	0.434
C15A G73A	0.283
C15G C61A	0.516
A16C A43C	0.415
C14U G50U	1.09
C14U G50C	1.11
A16C C75G	0.268
C15U G50A	1.08
C14U U69C	1.4
C15U G67U	0.972
C15U G67A	0.808
C15U G67C	0.883
C15A A56G	0.587
A16C C62G	0.403
C15A A42U	0.269
C14U G28U	0.285
A16G C49A	1.08
C15A C32U	0.314
C15G G82A	0.0978
C15A C49G	0.166

Variant	self-cleavage
C15A C49U	0.656
C15A C30U	0.104
A16C C84G	0.87
A16C C84A	0.655
C15A U65G	0.653
C15G A77U	0.158
C15G A77G	0.332
C15U C36U	0.886
C14U G54U	1.23
C14U C21G	0.125
A16G G31C	0.208
A16G C30G	0.122
A16G C30A	0.702
C15U A43U	0.284
A16C A78G	0.361
C15U C26U	1.2
C15G C30G	0.317
C15U G54U	0.901
C14U G76C	1.06
C15A C44A	0.529
C15A G68A	0.511
C15A G68C	0.458
C15A	0.698
C15U	0.965

Variant	self-cleavage
C15G	0.663
A16G A83G	0.755
A16G A83C	0.462
C15A U27C	0.277
C15A U27A	0.594
C15U A71U	0.598
C15U A87C	1.03
C15U U47G	0.89
C15U U47C	0.779
A16G G55A	0.943
C15A C58G	1.02
C15U U27C	0.712
A16G U46C	0.293
C15G G55A	0.522
C14U C36U	0.96
C15A U20C	0.135
A16G G82A	0.453
A16G G82C	0.172
A16C A42U	0.208
A16G C24G	0.178
C14U G68C	0.733
C15A G59U	0.623
C15A G59A	0.543
C14U C48U	1.02

Variant	self-cleavage
C15U C58G	1.36
C15U C58U	0.811
A16C U20G	0
C15U C32G	0.0489
C15U U65A	0.831
C15A G81A	0.57
C15G C86U	0.791
C14U C85U	0.831
C14U C85G	0.712
C15G G38U	0
C15A G31C	0
C15A G31A	0.16
A16G G53A	1.04
C15G C57U	0.554
C15G C57G	0.692
A16C U65C	0.256
C14U G34C	0.172
C15A C21A	0
C15A C21U	0.0415
C15A G25U	0.0791
A16C G31A	0.297
C15U G25A	0.0898
C15U G68A	0.759
C15U G68U	0.88

Variant	self-cleavage
C15U U46C	0.9
C15U U46G	0.499
C15G A51U	0.475
A16C G40C	0.201
C15A C84A	0.539
C15G G29C	0
C15G G29A	0.0339
C14U G81A	1.32
A16C C64A	0.895
A16C C64G	0.554
C15A G80C	0.222
C15A G80U	0.899
C14U G67A	1.09
C14U G35A	0.631
A16C G50C	0.959
A16C G17A	0.519
A16G G52A	0.975
C15A G34C	0.256
C15A G34U	0
C14U C58A	1.13
C15U G82A	0.325
C15G C48G	0.739
C15A C33U	0.427
A16G C63A	1.03

Variant	self-cleavage
C15G G35U	0.0396
C15G A42G	0.166
C15G A42C	0.0755
C15G A42U	0.0504
C15G G50U	0.598
C15G G50C	0.575
A16C G81C	0.346
A16C G81U	0.519
C15U C62G	0.851
A16G C36A	0.229
C15A A71U	0.802
C15G G73U	0.147
C15G G73A	0.162
C15G G34C	0
C14U G59C	1.01
C15U G35C	0.0723
C15U G35A	0.475
A16G G59A	1.29
A16G G59U	1.11
A16G C64A	0.782
C14U G40C	0.391
C15U C63U	0.914
C15A C62A	0.677
C15A C62G	0.499

Variant	self-cleavage
C15A C62U	0.764
C15A C61G	0.508
C15A G67A	0.499
C15A C19G	0.0519
C15A C19U	0.089
C15U A83C	0.65
C14U C57G	0.787
C14U C57U	0.878
A16C G59A	0.649
A16G G73A	0.396
A16G G73C	0.431
A16C C63A	0.942
C14U C75A	0.208
C15A C26U	0.895
C14U U20C	0.133
C15A G28U	0.0615
A16G G54A	0.727
C15U A70U	0.831
C15A G35U	0.188
A16G C18G	0.111
C15A G29C	0.0692
C15A G29U	0
